This note sets out measurements from article PMC2980497.

The series addresses MutL (Escherichia coli) (UniProt P23367). The series is described as follows: single-molecule flow-extension. As to conditions: 25 mM NaCl, 0.5 mM ATP, 2.5 pN; S0.5, multiple MutL bind; smFRET: 20 mM Tris-HCl pH 7.5, 25-150 mM NaCl (25 mM standard), 0.1 mM EDTA, 3 mM MgCl2, 0.5 mM ATP, 1 mM DTT, oxygen scavenger with 2 mM trolox ….
UniProt P23367, sequence (P23367 whole entry): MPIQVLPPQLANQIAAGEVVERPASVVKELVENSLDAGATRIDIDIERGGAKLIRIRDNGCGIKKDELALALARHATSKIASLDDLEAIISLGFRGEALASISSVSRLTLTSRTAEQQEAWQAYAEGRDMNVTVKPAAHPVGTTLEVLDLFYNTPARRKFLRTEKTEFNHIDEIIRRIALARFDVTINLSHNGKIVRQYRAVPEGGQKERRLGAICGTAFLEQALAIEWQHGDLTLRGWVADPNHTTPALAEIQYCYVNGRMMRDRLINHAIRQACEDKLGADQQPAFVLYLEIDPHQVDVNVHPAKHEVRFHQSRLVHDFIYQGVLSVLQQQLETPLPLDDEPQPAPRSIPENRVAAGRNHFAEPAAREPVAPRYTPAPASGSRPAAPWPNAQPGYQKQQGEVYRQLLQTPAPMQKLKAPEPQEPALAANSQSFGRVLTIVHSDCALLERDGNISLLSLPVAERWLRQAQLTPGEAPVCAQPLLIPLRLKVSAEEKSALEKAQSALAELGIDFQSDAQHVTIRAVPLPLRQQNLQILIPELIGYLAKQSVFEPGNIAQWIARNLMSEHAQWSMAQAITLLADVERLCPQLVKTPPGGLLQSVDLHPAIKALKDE

5.3 kb ssDNA displayed a K half of 24 nM.
